Values of other authors, collected in patent US9867860B2, “Formulations for preventing and treating decreasing platelet cell counts” (priority 2013, dated 2018).

Columns and labels:
[1] = tested on: patients with ITP and liver disease; conditions: for side effects: human, in vivo
[2] = tested on: refractory immune thrombocytopenia; conditions: two cases; high-dose vitamin D supplementation and hydroxychloroquine in combination
[3] = tested on: thrombocytopenia; conditions: Vitamin B12 and folate together, deficiency
[4] = tested on: myelosuppressed mice
[5] = tested on: patients with solid tumors who had previously received platelet transfusion because of myelosuppression; conditions: randomized, placebo-controlled trial
[6] = tested on: thrombocytopenia associated with chemotherapy, HCV infection, or early liver cirrhosis

In the case of `CC1=NN(c2ccc(C)c(C)c2)C(=O)/C1=N\Nc1cccc(-c2cccc(C(=O)O)c2)c1O` [Eltrombopag], the side effects [1] is given as “bone marrow fibrosis, thrombosis, and ocular toxicities”.

In the case of `CCN(CCO)CCCC(C)Nc1ccnc2cc(Cl)ccc12` (stereo not shown) [hydroxychloroquine, reference compound], the “treatment outcome of refractory immune thrombocytopenia” value [2] is given as “successfully treated”.

In the case of Romiplostim, the side effects [1] is listed as “bone marrow fibrosis, thrombosis, and ocular toxicities” and the platelet count ([1]; patients with ITP and liver disease, continuous treatment) is listed as “increase platelet count”.

In the case of vitamin D, the “treatment outcome of refractory immune thrombocytopenia” value [2] is listed as “successfully treated”.

In the case of Vitamin B12, the “correction of thrombocytopenia on repletion” value [3] is given as “rapidly corrects”.

B1: IL-11: recombinant human IL-11, cytokine stimulating megakaryocyte maturation (protein, UniProt P20809 22-199, looked up)
Interleukin-11: PGPPPGPPRVSPDPRAELDSTVLLTRSLLADTRQLAAQLRDKFPADGDHNLDSLPTLAMSAGALGALQLPGVLTRLRADLLSYLRHVQWLRRAGGSSLKTLEPELGTLQARLDRLLRRLQLLMSRLALPQPPPDPPAPPLAPPSSAWGGIRAAHAILGGLHLTLDWAVRGLLLLKTRL
For B1, the “platelet counts, IL-11 group versus peanut skins extract group” value ([4]; d7) is listed as “significantly higher”, the “platelet counts versus control thrombocytopenia group” value ([4]; d7, subcutaneous) is listed as “significantly improved” and the platelet counts ([4]; d10, subcutaneous) is listed as “further improved”. For the same molecule, the “reduction of the number of patients in need of platelet transfusions” value [5] was 26%, the other side effects ([6]; human, in vivo) was “dyspnea, atrial arrhythmias, syncope, and fatigue” and the “side effect: edema, share of patients” value ([6]; human, in vivo) was “more than 50 % of patients”. The correction of thrombocytopenia ([6]; thrombocytopenia associated with chemotherapy, HCV infection, or early liver cirrhosis, in some degree) was “could correct thrombocytopenia”.
